Measurements taken from patent publication US20260232827A1 (Zymeworks, published 2026).

T1: human NaPi2c (human, UniProt Q8N130 1-599)
T1 construct: whole, on cells; also called Hu NaPi2c; SLC34A3
T1 sequence (looked up): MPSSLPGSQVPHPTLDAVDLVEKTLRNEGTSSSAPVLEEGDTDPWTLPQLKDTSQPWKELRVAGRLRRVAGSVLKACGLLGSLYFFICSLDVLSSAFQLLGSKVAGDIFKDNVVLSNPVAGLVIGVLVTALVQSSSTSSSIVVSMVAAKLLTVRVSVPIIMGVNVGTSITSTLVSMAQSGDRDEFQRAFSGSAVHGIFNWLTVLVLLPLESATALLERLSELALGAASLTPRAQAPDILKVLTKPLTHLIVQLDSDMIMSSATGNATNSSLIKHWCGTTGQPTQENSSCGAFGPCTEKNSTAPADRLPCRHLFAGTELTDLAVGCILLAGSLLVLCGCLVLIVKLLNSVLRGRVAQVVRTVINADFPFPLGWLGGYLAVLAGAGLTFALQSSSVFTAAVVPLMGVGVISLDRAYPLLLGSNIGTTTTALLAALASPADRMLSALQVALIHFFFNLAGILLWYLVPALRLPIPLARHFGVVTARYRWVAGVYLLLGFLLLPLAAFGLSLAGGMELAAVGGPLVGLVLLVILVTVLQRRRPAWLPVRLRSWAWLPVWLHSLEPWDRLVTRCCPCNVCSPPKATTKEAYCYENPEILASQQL

T2: Construct 7 (human NaPi2b del 317-326) (human, UniProt O95436 1-690)
T2 construct: also called CL_#29921
T2 sequence: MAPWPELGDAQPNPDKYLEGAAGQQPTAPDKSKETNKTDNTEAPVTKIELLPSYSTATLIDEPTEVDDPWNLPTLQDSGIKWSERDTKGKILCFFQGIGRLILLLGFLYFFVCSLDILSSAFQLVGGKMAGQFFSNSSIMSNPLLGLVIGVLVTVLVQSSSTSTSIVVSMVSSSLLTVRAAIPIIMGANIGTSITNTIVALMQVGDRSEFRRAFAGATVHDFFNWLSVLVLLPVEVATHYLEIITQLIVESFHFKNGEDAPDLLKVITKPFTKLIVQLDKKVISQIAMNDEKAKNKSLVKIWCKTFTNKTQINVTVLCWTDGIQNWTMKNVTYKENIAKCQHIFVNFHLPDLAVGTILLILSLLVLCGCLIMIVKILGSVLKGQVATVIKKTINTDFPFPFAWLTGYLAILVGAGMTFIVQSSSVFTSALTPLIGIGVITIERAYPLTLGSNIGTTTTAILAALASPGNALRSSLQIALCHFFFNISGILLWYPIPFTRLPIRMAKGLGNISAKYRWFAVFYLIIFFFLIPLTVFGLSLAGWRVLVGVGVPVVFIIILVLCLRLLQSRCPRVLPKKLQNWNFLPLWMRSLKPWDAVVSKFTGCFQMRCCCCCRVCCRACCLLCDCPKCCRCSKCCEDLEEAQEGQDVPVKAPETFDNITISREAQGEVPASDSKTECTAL

T3: Construct 6 (human NaPi2b del 317-333) (human, UniProt O95436 1-690)
T3 construct: also called CL_#29919
T3 sequence: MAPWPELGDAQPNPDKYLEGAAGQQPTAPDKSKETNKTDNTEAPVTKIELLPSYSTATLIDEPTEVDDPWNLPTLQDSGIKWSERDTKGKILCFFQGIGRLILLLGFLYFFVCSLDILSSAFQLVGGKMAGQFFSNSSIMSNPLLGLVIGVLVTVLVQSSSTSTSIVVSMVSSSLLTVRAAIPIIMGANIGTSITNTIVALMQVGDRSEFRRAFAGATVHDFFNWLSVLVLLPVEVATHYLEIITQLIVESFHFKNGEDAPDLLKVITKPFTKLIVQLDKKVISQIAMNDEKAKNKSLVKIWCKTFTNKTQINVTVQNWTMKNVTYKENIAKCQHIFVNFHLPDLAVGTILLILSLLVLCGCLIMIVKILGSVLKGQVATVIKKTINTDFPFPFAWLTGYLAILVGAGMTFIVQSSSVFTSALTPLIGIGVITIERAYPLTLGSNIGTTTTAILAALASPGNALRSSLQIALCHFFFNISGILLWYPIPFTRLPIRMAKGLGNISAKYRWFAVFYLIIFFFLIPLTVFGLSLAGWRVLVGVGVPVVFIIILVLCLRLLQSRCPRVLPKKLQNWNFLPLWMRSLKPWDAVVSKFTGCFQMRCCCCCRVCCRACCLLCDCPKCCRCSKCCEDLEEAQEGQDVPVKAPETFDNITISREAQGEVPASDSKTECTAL

B1: v38591 (humanized anti-NaPi2b antibody, wild-type Fc) (antibody, human IgG1, kappa)
heavy: not shown
light: DVQMTQSPSSLSASVGDRVTITCRASQDVYSYLNWYQQKPGKAVKLLIYYTSRLQSGVPSRFSGSGSGTDYTLTISSLQPEDFATYYCQQYNIFPWTFGQGTKLEIKRTVAAPSVFIFPPSDEQLKSGTASVVCLLNNFYPREAKVQWKVDNALQSGNSQESVTEQDSKDSTYSLSSTLTLSKADYEKHKVYACEVTHQGLSSPVTKSFNRGEC
notes: also called v38591 Wild-type; H1L2
B2: v38591 (humanized anti-NaPi2b antibody, H1L2, wild-type Fc, heavy chains with C-terminal lysine) (antibody, human IgG1, kappa)
heavy: not shown
light: B1 light
notes: Full-size human IgG1/kappa antibody; also called v38591 (wild-type Fc)
B3: v22277 (palivizumab, anti-RSV negative control, heterodimeric Fc) (antibody, human IgG1, kappa)
heavy 1: GQVTLRESGPALVKPTQTLTLTCTFSGFSLSTSGMSVGWIRQPPGKALEWLADIWWDDKKDYNPSLKSRLTISKDTSKNQVVLKVTNMDPADTATYYCARSMITNWYFDVWGAGTTVTVSSASTKGPSVFPLAPSSKSTSGGTAALGCLVKDYFPEPVTVSWNSGALTSGVHTFPAVLQSSGLYSLSSVVTVPSSSLGTQTYICNVNHKPSNTKVDKKVEPKSCDKTHTCPPCPAPELLGGPSVFLFPPKPKDTLMISRTPEVTCVVVDVSHEDPEVKFNWYVDGVEVHNAKTKPREEQYNSTYRVVSVLTVLHQDWLNGKEYKCKVSNKALPAPIEKTISKAKGQPREPQVYVYPPSRDELTKNQVSLTCLVKGFYPSDIAVEWESNGQPENNYKTTPPVLDSDGSFALVSKLTVDKSRWQQGNVFSCSVMHEALHNHYTQKSLSLSPG
heavy 2: not shown
light: GDIQMTQSPSTLSASVGDRVTITCKSQLSVGYMHWYQQKPGKAPKLLIYDTSKLASGVPSRFSGSGSGTEFTLTISSLQPDDFATYYCFQGSGYPFTFGGGTKLEIKRTVAAPSVFIFPPSDEQLKSGTASVVCLLNNFYPREAKVQWKVDNALQSGNSQESVTEQDSKDSTYSLSSTLTLSKADYEKHKVYACEVTHQGLSSPVTKSFNRGEC
notes: also called neg control
B4: v18993 (lifastuzumab), reference anti-NaPi2b antibody (antibody, human IgG1, kappa)
heavy 1: GEVQLVESGGGLVQPGGSLRLSCAASGFSFSDFAMSWVRQAPGKGLEWVATIGRVAFHTYYPDSMKGRFTISRDNSKNTLYLQMNSLRAEDTAVYYCARHRGFDVGHFDFWGQGTLVTVSSASTKGPSVFPLAPSSKSTSGGTAALGCLVKDYFPEPVTVSWNSGALTSGVHTFPAVLQSSGLYSLSSVVTVPSSSLGTQTYICNVNHKPSNTKVDKKVEPKSCDKTHTCPPCPAPELLGGPSVFLFPPKPKDTLMISRTPEVTCVVVDVSHEDPEVKFNWYVDGVEVHNAKTKPREEQYNSTYRVVSVLTVLHQDWLNGKEYKCKVSNKALPAPIEKTISKAKGQPREPQVYVYPPSRDELTKNQVSLTCLVKGFYPSDIAVEWESNGQPENNYKTTPPVLDSDGSFALVSKLTVDKSRWQQGNVFSCSVMHEALHNHYTQKSLSLSPG
heavy 2: not shown
light: GDIQMTQSPSSLSASVGDRVTITCRSSETLVHSSGNTYLEWYQQKPGKAPKLLIYRVSNRFSGVPSRFSGSGSGTDFTLTISSLQPEDFATYYCFQGSFNPLTFGQGTKVEIKRTVAAPSVFIFPPSDEQLKSGTASVVCLLNNFYPREAKVQWKVDNALQSGNSQESVTEQDSKDSTYSLSSTLTLSKADYEKHKVYACEVTHQGLSSPVTKSFNRGEC
B5: v18992 (MX35), reference anti-NaPi2b antibody (antibody, human IgG1, kappa)
heavy 1: GQVQLVQSGAEVVKPGASVKMSCKASGYTFTGYNIHWVKQAPGQGLEWIGAIYPGNGDTSYKQKFRGRATLTADTSTSTVYMELSSLRSEDSAVYYCARGETARATFAYWGQGTLVTVSSASTKGPSVFPLAPSSKSTSGGTAALGCLVKDYFPEPVTVSWNSGALTSGVHTFPAVLQSSGLYSLSSVVTVPSSSLGTQTYICNVNHKPSNTKVDKKVEPKSCDKTHTCPPCPAPELLGGPSVFLFPPKPKDTLMISRTPEVTCVVVDVSHEDPEVKFNWYVDGVEVHNAKTKPREEQYNSTYRVVSVLTVLHQDWLNGKEYKCKVSNKALPAPIEKTISKAKGQPREPQVYVYPPSRDELTKNQVSLTCLVKGFYPSDIAVEWESNGQPENNYKTTPPVLDSDGSFALVSKLTVDKSRWQQGNVFSCSVMHEALHNHYTQKSLSLSPG
heavy 2: not shown
light: GDIQMTQSPSSLSASVGDRVTITCSASQDIGNFLNWYQQKPGKTVKVLIYYTSSLYSGVPSRFSGSGSGTDYTLTISSLQPEDFATYYCQQYSKLPLTFGQGTKLELKRTVAAPSVFIFPPSDEQLKSGTASVVCLLNNFYPREAKVQWKVDNALQSGNSQESVTEQDSKDSTYSLSSTLTLSKADYEKHKVYACEVTHQGLSSPVTKSFNRGEC
B6: MX35 (v18992), reference anti-NaPi2b antibody (antibody, human IgG1, kappa)
heavy 1: B5 heavy 1
heavy 2: not shown
light: B5 light

How the values were obtained:
human NaPi2c = target: T1, human NaPi2c; experiment: flow cytometry on HEK293-6e cells transfected with human NaPi2c, 24 h at 4 C, anti-human IgG Fc AF647
[1] = target: T2, Construct 7 (human NaPi2b del 317-326); experiment: flow cytometry, transfected HEK293-6e cells, antibody 200 nM;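 note: cells incubated with antibody for 24 h at 4 °C, background taken as average MFI of unstained cells without primary antibody, at least 1,000 events per well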
[2] = target: T4, Construct 3 (chimeric human NaPi2b, swap in NaPi2c in 304-321) (human); experiment: as above
T4 construct: also called CL_#29916

[3] = target: T5, Construct 4 (chimeric human NaPi2b, swap in NaPi2c in 341-358) (human); experiment: as above
T5 construct: also called CL_#13435

[4] = target: T3, Construct 6 (human NaPi2b del 317-333); experiment: as above

| Binder | binding result (human NaPi2c) | Background-Subtracted AF647 Mean Fluorescence Intensity [1] [MFI] | Background-Subtracted AF647 Mean Fluorescence Intensity [2] [MFI] | Background-Subtracted AF647 Mean Fluorescence Intensity [3] [MFI] | Background-Subtracted AF647 Mean Fluorescence Intensity [4] [MFI] |
| --- | --- | --- | --- | --- | --- |
| B1 | no binding (tested: 200 nM) |  |  |  |  |
| B2 |  | 626 | 810 | 933 | 210 |
| B3 | no binding (tested: 200 nM) |  |  |  |  |
| B4 | no binding (tested: 200 nM) |  |  |  |  |
| B5 | no binding (tested: 200 nM) |  |  |  |  |
| B6 |  | 298 | 802 | 764 | -2 |
